Laboratory results taken from the RNAGym collection of RNA variant scans (doi:10.7554/elife.90254).

B1: LINE1-full (parent)
chain: UACGUAGGUGGUUUUCCCCUGAUAGUGCUAAGGGGGCCUGGAAGUUUGGACUGGGCAGAGCUCAACACAGCGUGGCAAAGUGGCUGUGGCUAGACUGCCUCUCUGGAUUCCUCGUCACUCAGCAGGGCAUCUCUGAGAGAAAUGCC

Variants of: B1
Test: self-cleavage, relative activity (ratio to wild type); higher = more cleavage; in vitro, sequencing; the parent is a self-cleaving ribozyme
UACGUAGGUGGUUUUCCCCUGAUAGUGCUAAGGGGGCCUGGAAGUUUGGACUGGGCAGAGCUCAACACAGCGUGGCAAAGUGGCUGUGGCUAGACCGCCUCUCUGGAUUCCUCGUCACUCAGCAGGGCAUCUCUGAGUGAAAUGCC [U96C A138U] gave a self-cleavage of 0.1. UACGUAGGUGGUUUUCCCCUGAUAGUGCUAAGGGGGCCUGGAAGUUUGGACUGGGCAGAGCUCAACACAGCGUGGCAAAGUGGCUGUGGCUAGACAGCCUCUCUGGAUUCCUCGUCACUCAGCAGGGCAUCCCUGAGAGAAAUGCC [U96A U132C] gave a self-cleavage of 0.12. With UACGUAGGUGGUUUUCCCCUGAUAGUGCUAAGGGGGCCUGGAAGUUUGGACUGGGCAGAGCUCAACACAGCGUGGCAAAGUGGCUGUGGCUAGACCGCCUCUCUGGAUUCCUCGUCACUCUGCAGGGCAUCUCUGAGAGAAAUGCC [U96C A121U] the self-cleavage was 0.13. UACGUAGGUGGUUUUCCCCUGAUAGUGCUAAGGGGGCCUGGAAGUUUGGACUGGGCAGAGCUCAACACAGCGUGGCAAAGUGGCUGUGGCUAGACCGCCUCUCUGGAUUCCUCGUCACUCAGCAGGGCAUCUCUGAGAGAGAUGCC [U96C A141G] showed a self-cleavage of 0.18. UACGUAGGUGGUUUUCCCCUGAUAGUGCUAAGGGGGCCUGGAAGUUUGGACUGGGCAGAGCUCAACACAGCGUGGCAAAGUGGCUGUGGCUAGACCGCCUCUCUGGAUUCCUCGUCACGCAGCAGGGCAUCUCUGAGAGAAAUGCC [U96C U119G] gave a self-cleavage of 0.13. For UACGUAGGUGGUUUUCCCCUGAUAGUGCUAAGGGGGCCUGGAAGUUUGGACUGGGCAGAGCUCAACACAGCGUGGCAAAGUGGCUGUGGCUAGACCGCCUCUCUGGAUUCCUCGUCACUCAGCAGGGCAUCUCGGAGAGAAAUGCC [U96C U134G], the self-cleavage was 0.11. Work on UACGUAGGUGGUUUUCCCCUGAUAGUGCUAAGGGGGCCUGGAAGUUUGGACUGGGCAGAGCUCAACACAGCGUGGCAAAGUGGCUGUGGCUAGACCGCCUCUCUGGAUUCUUCGUCACUCAGCAGGGCAUCUCUGAGAGAAAUGCC [U96C C111U] yielded a self-cleavage of 0.12. Variant UACGUAGGUGGUUUUCCCCUGAUAGUGCUAAGGGGGCCUGGAAGUUUGGACUGGGCAGAGCUCAACACAGCGUGGCAAAGUGGCUGUGGCUAGACCGCCUCUCUGGAUUCCUCGUCACUCAGCAGAGCAUCUCUGAGAGAAAUGCC [U96C G126A] has a self-cleavage of 0.15. In the case of UACGUAGGUGGUUUUCCCCUGAUAGUGCUAAGGGGGCCUGGAAGUUUGGACUGGGCAGAGCUCAACACAGCGUGGCAAAGUGGCUGUGGCUAGACCGCCUCUCUGGAUUCCUCGUCACUCAGCAGGGCUUCUCUGAGAGAAAUGCC [U96C A129U], the self-cleavage is reported as 0.1. With UACGUAGGUGGUUUUCCCCUGAUAGUGCUAAGGGGGCCUGGAAGUUUGGACUGGGCAGAGCUCAACACAGCGUGGCAAAGUGGCUGUGGCUAGACCGCCUCUCUGGAUUCCUCGUCACUCAGCAGGGCGUCUCUGAGAGAAAUGCC [U96C A129G] the self-cleavage was 0.11. For UACGUAGGUGGUUUUCCCCUGAUAGUGCUAAGGGGGCCUGGAAGUUUGGACUGGGCAGAGCUCAACACAGCGUGGCAAAGUGGCUGUGGCUAGACCGCCUCUCUGGGUUCCUCGUCACUCAGCAGGGCAUCUCUGAGAGAAAUGCC [U96C A107G], the self-cleavage was 0.14. In the case of UACGUAGGUGGUUUUCCCCUGAUAGUGCUAAGGGGGCCUGGAAGUUUGGACUGGGCAGAGCUCAACACAGCGUGGCAAAGUGGCUGUGGCUAGACCGCCUCUCCGGAUUCCUCGUCACUCAGCAGGGCAUCUCUGAGAGAAAUGCC [U96C U104C], the self-cleavage is reported as 0.13. Work on UACGUAGGUGGUUUUCCCCUGAUAGUGCUAAGGGGGCCUGGAAGUUUGGACUGGGCAGAGCUCAACACAGCGUGGCAAAGUGGCUGUGGCUAGACCGCCUCUCUGGAUUCCUCGUCACUCAGCAGGGCAUCUCUGCGAGAAAUGCC [U96C A136C] yielded a self-cleavage of 0. Variant UACGUAGGUGGUUUUCCCCUGAUAGUGCUAAGGGGGCCUGGAAGUUUGGACUGGGCAGAGCUCAACACAGCGUGGCAAAGUGGCUGUGGCUAGACCGCCUCUCUGGAUUCCUCGUCACUCAGCAGGGCAUCUCUGUGAGAAAUGCC [U96C A136U] has a self-cleavage of 0.15. UACGUAGGUGGUUUUCCCCUGAUAGUGCUAAGGGGGCCUGGAAGUUUGGACUGGGCAGAGCUCAACACAGCGUGGCAAAGUGGCUGUGGCUAGACCGCCUCUCUGGAUUCCUCGUCACUCAGCAGGGCAUCUCUGGGAGAAAUGCC [U96C A136G] gave a self-cleavage of 0.15. In the case of UACGUAGGUGGUUUUCCCCUGAUAGUGCUAAGGGGGCCUGGAAGUUUGGACUGGGCAGAGCUCAACACAGCGUGGCAAAGUGGCUGUGGCUAGACCGCCUCUCUGGAAUCCUCGUCACUCAGCAGGGCAUCUCUGAGAGAAAUGCC [U96C U108A], the self-cleavage is reported as 0.09. For UACGUAGGUGGUUUUCCCCUGAUAGUGCUAAGGGGGCCUGGAAGUUUGGACUGGGCAGAGCUCAACACAGCGUGGCAAAGUGGCUGUGGCUAGACCGCCACUCUGGAUUCCUCGUCACUCAGCAGGGCAUCUCUGAGAGAAAUGCC [U96C U100A], the self-cleavage was 0.08. UACGUAGGUGGUUUUCCCCUGAUAGUGCUAAGGGGGCCUGGAAGUUUGGACUGGGCAGAGCUCAACACAGCGUGGCAAAGUGGCUGUGGCUAGACCGCCCCUCUGGAUUCCUCGUCACUCAGCAGGGCAUCUCUGAGAGAAAUGCC [U96C U100C] showed a self-cleavage of 0.38. Variant UACGUAGGUGGUUUUCCCCUGAUAGUGCUAAGGGGGCCUGGAAGUUUGGACUGGGCAGAGCUCAACACAGCGUGGCAAAGUGGCUGUGGCUAGACCGCCUCUCUGGAUUCCUCGUCACUCAGCAGGGCACCUCUGAGAGAAAUGCC [U96C U130C] has a self-cleavage of 0.24. Variant UACGUAGGUGGUUUUCCCCUGAUAGUGCUAAGGGGGCCUGGAAGUUUGGACUGGGCAGAGCUCAACACAGCGUGGCAAAGUGGCUGUGGCUAGACAGCCUCUCUGGAUUCCUCGUCACUCAGCAGGGCAUCUCAGAGAGAAAUGCC [U96A U134A] has a self-cleavage of 0.08. UACGUAGGUGGUUUUCCCCUGAUAGUGCUAAGGGGGCCUGGAAGUUUGGACUGGGCAGAGCUCAACACAGCGUGGCAAAGUGGCUGUGGCUAGACCGCCUCUCUGGAUUCCUCGUCACUCAGCAGGGCAUCUCUGAGAGAAACGCC [U96C U143C] gave a self-cleavage of 0.14. In the case of UACGUAGGUGGUUUUCCCCUGAUAGUGCUAAGGGGGCCUGGAAGUUUGGACUGGGCAGAGCUCAACACAGCGUGGCAAAGUGGCUGUGGCUAGACCGCCUCUCUGGAUUCCUCGUCACUCAGCAGGGCAUCUCUGAUAGAAAUGCC [U96C G137U], the self-cleavage is reported as 0.06. UACGUAGGUGGUUUUCCCCUGAUAGUGCUAAGGGGGCCUGGAAGUUUGGACUGGGCAGAGCUCAACACAGCGUGGCAAAGUGGCUGUGGCUAGACCGCCUCUCUGGAUUCCUCGUCACUCAGCAGGGCAUCUCUGAGAGAAAUGCU [U96C C146U] gave a self-cleavage of 0.15. Work on UACGUAGGUGGUUUUCCCCUGAUAGUGCUAAGGGGGCCUGGAAGUUUGGACUGGGCAGAGCUCAACACAGCGUGGCAAAGUGGCUGUGGCUAGACCGCCUCUCUGGAUUCCUCGUCACUCAGCAGGGCAUCUCUGAGAGAAAUGCA [U96C C146A] yielded a self-cleavage of 0.25. Variant UACGUAGGUGGUUUUCCCCUGAUAGUGCUAAGGGGGCCUGGAAGUUUGGACUGGGCAGAGCUCAACACAGCGUGGCAAAGUGGCUGUGGCUAGACCGCCUCUCUGGAUUCCUCGUCACUCAGCAGGGCAUCUCUGAGAGUAAUGCC [U96C A140U] has a self-cleavage of 0.14. In the case of UACGUAGGUGGUUUUCCCCUGAUAGUGCUAAGGGGGCCUGGAAGUUUGGACUGGGCAGAGCUCAACACAGCGUGGCAAAGUGGCUGUGGCUAGACCGCCUCUCUGGAUUCCUCGUCGCUCAGCAGGGCAUCUCUGAGAGAAAUGCC [U96C A117G], the self-cleavage is reported as 0.2. UACGUAGGUGGUUUUCCCCUGAUAGUGCUAAGGGGGCCUGGAAGUUUGGACUGGGCAGAGCUCAACACAGCGUGGCAAAGUGGCUGUGGCUAGACCGCCUCUCUGGAUUCCUCGUCUCUCAGCAGGGCAUCUCUGAGAGAAAUGCC [U96C A117U] gave a self-cleavage of 0.1. In the case of UACGUAGGUGGUUUUCCCCUGAUAGUGCUAAGGGGGCCUGGAAGUUUGGACUGGGCAGAGCUCAACACAGCGUGGCAAAGUGGCUGUGGCUAGACCGCCUCUCUGGAUUCCUCGUCACUCAGCAGGGCAUCUCUGAGAGAAUUGCC [U96C A142U], the self-cleavage is reported as 0.12. With UACGUAGGUGGUUUUCCCCUGAUAGUGCUAAGGGGGCCUGGAAGUUUGGACUGGGCAGAGCUCAACACAGCGUGGCAAAGUGGCUGUGGCUAGACCGCCUCUCUGGAUUCCUCGUCACUCAGCAGGGCAUCUCUGAGAGAAGUGCC [U96C A142G] the self-cleavage was 0.13. In the case of UACGUAGGUGGUUUUCCCCUGAUAGUGCUAAGGGGGCCUGGAAGUUUGGACUGGGCAGAGCUCAACACAGCGUGGCAAAGUGGCUGUGGCUAGACCGCCUCUCUGGAUUCCUGGUCACUCAGCAGGGCAUCUCUGAGAGAAAUGCC [U96C C113G], the self-cleavage is reported as 0.11. For UACGUAGGUGGUUUUCCCCUGAUAGUGCUAAGGGGGCCUGGAAGUUUGGACUGGGCAGAGCUCAACACAGCGUGGCAAAGUGGCUGUGGCUAGACCGCCUCUCUGGAUUCCUAGUCACUCAGCAGGGCAUCUCUGAGAGAAAUGCC [U96C C113A], the self-cleavage was 0.05. Work on UACGUAGGUGGUUUUCCCCUGAUAGUGCUAAGGGGGCCUGGAAGUUUGGACUGGGCAGAGCUCAACACAGCGUGGCAAAGUGGCUGUGGCUAGACCGCCUCUCUGGAUUCCUUGUCACUCAGCAGGGCAUCUCUGAGAGAAAUGCC [U96C C113U] yielded a self-cleavage of 0.05. In the case of UACGUAGGUGGUUUUCCCCUGAUAGUGCUAAGGGGGCCUGGAAGUUUGGACUGGGCAGAGCUCAACACAGCGUGGCAAAGUGGCUGUGGCUAGACCGCCUCUCUGGAUUCCUCGCCACUCAGCAGGGCAUCUCUGAGAGAAAUGCC [U96C U115C], the self-cleavage is reported as 0.32. UACGUAGGUGGUUUUCCCCUGAUAGUGCUAAGGGGGCCUGGAAGUUUGGACUGGGCAGAGCUCAACACAGCGUGGCAAAGUGGCUGUGGCUAGACCGCCUCUCUGGAUUCCUCGGCACUCAGCAGGGCAUCUCUGAGAGAAAUGCC [U96C U115G] gave a self-cleavage of 0.21. UACGUAGGUGGUUUUCCCCUGAUAGUGCUAAGGGGGCCUGGAAGUUUGGACUGGGCAGAGCUCAACACAGCGUGGCAAAGUGGCUGUGGCUAGACCGCCUCUCUGGAUUCCUCGACACUCAGCAGGGCAUCUCUGAGAGAAAUGCC [U96C U115A] showed a self-cleavage of 0.13. UACGUAGGUGGUUUUCCCCUGAUAGUGCUAAGGGGGCCUGGAAGUUUGGACUGGGCAGAGCUCAACACAGCGUGGCAAAGUGGCUGUGGCUAGACCGCCUCUCUGGAUUCCUCGUCACUCAGCAGGGCAUCUCUAAGAGAAAUGCC [U96C G135A] showed a self-cleavage of 0.24. In the case of UACGUAGGUGGUUUUCCCCUGAUAGUGCUAAGGGGGCCUGGAAGUUUGGACUGGGCAGAGCUCAACACAGCGUGGCAAAGUGGCUGUGGCUAGACCGCCUCUCUGGAUUCCUCGUCACUCAGCAGGGCAUCCCUGAGAGAAAUGCC [U96C U132C], the self-cleavage is reported as 0.11. Variant UACGUAGGUGGUUUUCCCCUGAUAGUGCUAAGGGGGCCUGGAAGUUUGGACUGGGCAGAGCUCAACACAGCGUGGCAAAGUGGCUGUGGCUAGACCGCCUCUCUGGAUUCCUCGUCACUCAGCAGGGCAUCACUGAGAGAAAUGCC [U96C U132A] has a self-cleavage of 0.11. UACGUAGGUGGUUUUCCCCUGAUAGUGCUAAGGGGGCCUGGAAGUUUGGACUGGGCAGAGCUCAACACAGCGUGGCAAAGUGGCUGUGGCUAGACCGCCUCUCUGGAUUCCUCGUCACUCAGCUGGGCAUCUCUGAGAGAAAUGCC [U96C A124U] gave a self-cleavage of 0.14.
